From paper PMC7473641, “The C-terminal helix of BubR1 is essential for CENP-E-dependent chromosome alignment” (Journal of Cell Science, 2020)
Blank lines part the entries; values can stand above or below the binder they belong to.

B1: CENP-E_(2091–2358)–GST (domain or fragment, human, UniProt Q02224-1 2091-2358, looked up)
chain: ESLREKCSRIKELLKRYSEMDDHYECLNRLSLDLEKEIEFQKELSMRVKANLSLPYLQTKHIEKLFTANQRCSMEFHRIMKKLKYVLSYVTKIKEEQHESINKFEMDFIDEVEKQKELLIKIQHLQQDCDVPSRELRDLKLNQNMDLHIEEILKDFSESEFPSIKTEFQQVLSNRKEMTQFLEEWLNTRFDIEKLKNGIQKENDRICQVNNFFNNRIIAIMNESTEFEERSATISKEWEQDLKSLKEKNEKLFKNYQTLKTSLASGAQ
notes: no own measurement; not shown: GST, C-terminal, kept
B4: BubR1_(705–1050), pseudokinase domain of BubR1 (domain or fragment, human, UniProt O60566 705-1050, looked up)
chain: EKLELTNETSENPTQSPWCSQYRRQLLKSLPELSASAELCIEDRPMPKLEIEKEIELGNEDYCIKREYLICEDYKLFWVAPRNSAELTVIKVSSQPVPWDFYINLKLKERLNEDFDHFCSCYQYQDGCIVWHQYINCFTLQDLLQHSEYITHEITVLIIYNLLTIVEMLHKAEIVHGDLSPRCLILRNRIHDPYDCNKNNQALKIVDFSYSVDLRVQLDVFTLSGFRTVQILEGQKILANCSSPYQVDLFGIADLAHLLLFKEHLQVFWDGSFWKLSQNISELKDGELWNKFFVRILNANDEATVSVLGELAAEMNGVFDTTFQSHLNKALWKVGKLTSPGALLFQ
notes: source: E. coli BL21-CodonPlus (DE3)-RIL (overnight at 18°C), purified (HisTrap, 3C protease, SEC); not shown: His6, N-terminal, cleaved

What was measured:
[1] = target: B4; assay: ITC; 276 µM BubR1 705-1050 titrated into 25 µM CENP-E 2091-2358-GST at 37°C; 20 mM HEPES pH 7.5, 150 mM NaCl, 1 mM EDTA, 0.005% Tween-20, 0.5 mM TCEP; one set of sites; details: both partners purified
[2] = target: B4; assay: SEC; co-elution on Superdex Increase 200 10/300 GL in binding buffer (20 mM HEPES pH 7.5, 150 mM NaCl, 1 mM EDTA, 1 mM DTT); proteins mixed in equimolar ratio at ~7 µM; fractions on Coomassie gels; details: both partners purified
[3] = target: B1; assay: ITC; 276 µM BubR1 705-1050 titrated into 25 µM CENP-E 2091-2358-GST at 37°C; 20 mM HEPES pH 7.5, 150 mM NaCl, 1 mM EDTA, 0.005% Tween-20, 0.5 mM TCEP; one set of sites; details: both partners purified
[4] = target: the molecule itself; assay: SEC-MALS; 100 µl at 1 mg/ml on Superdex-200 10/300 GL Increase, 22°C, gel filtration buffer (20 mM HEPES pH 7.5, 300 mM NaCl, or 500 mM for CENP-E 2055-2608, 1 mM EDTA, 1 mM DTT)
[5] = target: T1, BubR1_(432–1050), C terminus of BubR1 containing the pseudokinase domain (human, UniProt O60566 432-1050); assay: SEC; co-elution on Superdex Increase 200 10/300 GL in binding buffer (20 mM HEPES pH 7.5, 150 mM NaCl, 1 mM EDTA, 1 mM DTT); proteins mixed in equimolar ratio at ~7 µM; fractions on Coomassie gels; details: both partners purified
T1 construct: source: purified recombinant

Binder: B1
Kd [1]: 318 nM

binding result [2]: binds
B2: CENP-E_(2069–2358)–GST (domain or fragment, human, UniProt Q02224-1 2069-2358, looked up)
chain: DRQNHQVKPEKRLLSDGQQHLTESLREKCSRIKELLKRYSEMDDHYECLNRLSLDLEKEIEFQKELSMRVKANLSLPYLQTKHIEKLFTANQRCSMEFHRIMKKLKYVLSYVTKIKEEQHESINKFEMDFIDEVEKQKELLIKIQHLQQDCDVPSRELRDLKLNQNMDLHIEEILKDFSESEFPSIKTEFQQVLSNRKEMTQFLEEWLNTRFDIEKLKNGIQKENDRICQVNNFFNNRIIAIMNESTEFEERSATISKEWEQDLKSLKEKNEKLFKNYQTLKTSLASGAQ
notes: no own measurement of the oligomeric state; source: E. coli BL21-CodonPlus (DE3)-RIL, purified; not shown: GST, C-terminal, kept

binding result [2]: binds
B3: CENP-E_(2055–2358), minimal kinetochore-targeting domain of CENP-E (domain or fragment, human, UniProt Q02224-1 2055-2358, looked up)
chain: RDQFIATLREMIARDRQNHQVKPEKRLLSDGQQHLTESLREKCSRIKELLKRYSEMDDHYECLNRLSLDLEKEIEFQKELSMRVKANLSLPYLQTKHIEKLFTANQRCSMEFHRIMKKLKYVLSYVTKIKEEQHESINKFEMDFIDEVEKQKELLIKIQHLQQDCDVPSRELRDLKLNQNMDLHIEEILKDFSESEFPSIKTEFQQVLSNRKEMTQFLEEWLNTRFDIEKLKNGIQKENDRICQVNNFFNNRIIAIMNESTEFEERSATISKEWEQDLKSLKEKNEKLFKNYQTLKTSLASGAQ
notes: Monomer by SEC-MALS; source: E. coli BL21-CodonPlus (DE3)-RIL, purified (HisTrap, Superdex 200)

Binder: B4
dH [3]: -5.1 kcal/mol
stoichiometry N [3]: 0.908

binding result [5]: binds
B5: CENP-E_(2055–2608), kinetochore- and centrosome-targeting domain of CENP-E (domain or fragment, human, UniProt Q02224-1 2055-2608, looked up)
chain: RDQFIATLREMIARDRQNHQVKPEKRLLSDGQQHLTESLREKCSRIKELLKRYSEMDDHYECLNRLSLDLEKEIEFQKELSMRVKANLSLPYLQTKHIEKLFTANQRCSMEFHRIMKKLKYVLSYVTKIKEEQHESINKFEMDFIDEVEKQKELLIKIQHLQQDCDVPSRELRDLKLNQNMDLHIEEILKDFSESEFPSIKTEFQQVLSNRKEMTQFLEEWLNTRFDIEKLKNGIQKENDRICQVNNFFNNRIIAIMNESTEFEERSATISKEWEQDLKSLKEKNEKLFKNYQTLKTSLASGAQVNPTTQDNKNPHVTSRATQLTTEKIRELENSLHEAKESAMHKESKIIKMQKELEVTNDIIAKLQAKVHESNKCLEKTKETIQVLQDKVALGAKPYKEEIEDLKMKLVKIDLEKMKNAKEFEKEISATKATVEYQKEVIRLLRENLRRSQQAQDTSVISEHTDPQPSNKPLTCGGGSGIVQNTKALILKSEHIRLEKEISKLKQQNEQLIKQKNELLSNNQHLSNEVKTWKERTLKREAHKQVTCENSPKS
notes: Dimer by SEC-MALS; Aggregated in 150 mM NaCl and was kept in 500 mM NaCl; Cloned in pET-3aTr; also called longer dimeric kinetochore-targeting domain; source: E. coli BL21-CodonPlus (DE3)-RIL, purified (HisTrap, Superdex 200 in 500 mM NaCl)
stoichiometry N [4]: 2
